The results in this text go back to patent US12723255B2, “Herbicide tolerance genes and methods of use thereof” (priority 2014, dated 2026).

Several values for one entry are separate records, joined by “and”; a condition that tells them apart may be missing. Identical values can stand only once.

The subject of one data set is transgenic soy plants. Put plainly: soy green house tolerance to synthetic auxins. Format: in vivo, soybean. The note with it: for Average soy % crop injury for 4 reps, 2,4-D Amine / Average soy % crop injury for 4 reps, MCPA: 2X rate 1680 g ae/ha.
A short description of data set [1]: enzyme activity assay at 23° C. with purified enzyme. It is filed as biochemical. The method, then:
The enzyme activity of MON-HT protein variants with triclopyr, fluroxypyr, MCPA, MCPB, mecoprop, as substrates was determined using the enzyme activity assay conducted at 23° C. with purified enzyme. The activity was recorded as the maximum activity as a percentage of the wild-type RdpA enzyme's activity, which was set at 100%. […] The enzymatic activity with mecoprop as a substrate was reduced for each of the MON-HT1, MON-HT13, MON-HT15, and MON-HT17 variants compared to the wild-type RdpA enzyme. An unexpected result was that enzymatic activity with MCPA as a substrate was roughly 6-fold greater for MON-HT1, and approximately 10-fold greater for MON-HT13, MON-HT15, and MON-HT17 compared to the wild-type RdpA enzyme.

Data set [2] deals with transgenic soybean plants. Put plainly: R0 soybean 2,4-D spray test of 2,4-D optimized variants. Format: in vivo. An excerpt: An additional five engineered proteins optimized for activity for 2,4-D were then selected for analysis in transgenic soybean. DNA constructs were produced for expressing MON-HT13 (SEQ ID NO:47), MON-HT14 (SEQ ID NO:48), MON-HT15 (SEQ ID NO:49), MON-HT17 (SEQ ID NO:51), and MON-HT18 (SEQ ID NO:52) with codon usage optimized for dicot expression. The operably linked expression elements (promoter, leader, intron, CTP, and 3′UTR) were identical in all of the constructs. Leaf samples were taken from R0 plantlets and single copy plants were identified using a PCR-based assay. When the single-copy R0 plants had approximately two to three trifoliate leaves, they were treated with either 1.5 lb ae/acre (2×) or 3.0 lb ae/acre (4×) of 2,4-D. Seven days after herbicide application, the plants were scored for herbicide injury based on the percent area of the plant showing injury, as indicated above.

The test system of data set [3] is F1 hybrid maize plants. Put plainly: maize green house tolerance to synthetic auxins. It is filed as in vivo. The note with it: 'A' CTP, Events 1-3 in columns.
For data set [4], the system named is F1 hybrid maize plants. Description: plant-based assay for heat sensitivity, quizalofop-P tolerance. It is filed as in vivo. The note with it: 2× quizalofop-P, ten days post treatment, 0 no visible injury, 5 dead plants. On the procedure:
A plant-based enzyme activity assay for heat sensitivity was used to determine the effect of elevated growth temperatures on the herbicide tolerance of transgenic plants containing the optimized engineered proteins. To test for quizalofop-P tolerance at elevated growth temperatures, F1 hybrid (produced by crossing an R1 homozygous plant expressing one of the MON-HT proteins with inbred maize event MON89034) maize seed was grown in a growth chamber for 10 days at a day temperature of 28° C. and a night temperature of 20° C. with 50% humidity. After 10 days, the plants were moved to acclimate for 3 days at one of three different day and night temperature regimens: (1) both day and night temperatures set at 20° C.; (2) day temperature at 28° C. and night temperature at 20° C.; or (3) day temperature at 38° C. and night temperature at 30° C. At the end of the acclimation period, the plants were generally at V4 growth stage and were sprayed with 2× quizalofop-P. Ten days post treatment the plants were scored for injury on a rating scale of 1 to 5 where ‘0’ is no visible injury observed, ‘1’ is chlorotic speckling, ‘2’ is chlorotic streaking, ‘3’ there are leaf gaps or tears, ‘4’ are plants with stunted growth and/or twisted leaves, and ‘5’ are dead plants or no growth observed. […] (FIG. 4A) or 28° C./20° C. […]

A further data set has as its system transgenic maize plants. Description: R1 green house quizalofop-P spray test. Format: in vivo. To be noted: R1 maize with CTP; quizalofop-P 1× at V2; eleven days after treatment. An excerpt:
Plant transformation vectors were constructed each comprising a recombinant DNA molecule encoding one of three engineered proteins with the protein-coding sequence optimized for monocot expression, MON-HT51 (SEQ ID NO:3), MON-HT52 (SEQ ID NO:6), and MON-HT55 (SEQ ID NO:13). The vectors were created using different combinations of promoter, leader, intron, and 3′UTR and with and without a CTP operably linked to the protein-coding sequence. Also included in the vectors was a second DNA cassette comprising a cp4-EPSPS coding sequence to be used in transgenic plants for glyphosate tolerance. Immature maize (LH244) embryos were transformed with these vectors using Agrobacterium tumifaciens and standard methods known in the art. Regenerated R0 transgenic plantlets were grown in the green house and sprayed at approximately V2-V4 growth stage with 0.04 or 0.08 lb ai/acre quizalofop-P (AssureTM II, E.I. DuPont), representing 0.5× and 1× rates, respectively. Leaf samples were used to identify transgenic plants with a single copy of the transgenic DNA insert (that is, single event plants). […]
R1 plants expressing MON-HT55 with and without an operably linked CTP were grown in the green house and quizalofop-P herbicide was applied at the V2 growth stage at a rate of 0.08Ib ac/acre (1×). Plants were evaluated for injury eleven days after treatment.

The mark [5] stands for this setting: 2X rate 840 g ae/ha, Events 1-3 in columns, seven days after treatment.
Where [6] appears, read: Events 1-3 in columns, seven days after treatment.
Setting [7] is: Events 1-3 in columns, seven days after treatment, listed as MON-HTI.
[8] abbreviates: percentage of wild-type RdpA, set at 100%.

B1: MON-HT1: engineered oxygenase protein, amino acid sequence SEQ ID NO:14 (protein)
chain: MHAALTPLTNKYRFIDVQPLTGVLGAEITGVDLREPLDDSTWNEILDAFHTYQVIYFPGQAITNEQHIAFSRRFGPVDPVPILKSIEGYPEVQMIRREANESSRFIGDDWHTDSTFLDAPPAAVVMRAIEVPEYGGDTGFLSMYSAWETLSPTMQATIEGLNVVHSATKVFGSLYQATNWRFSNTSVKVMDVDAGDRETVHPLVVTHPVTGRRALYCNQVYCQKIQGMTDAESKSLLQFLYEHATKFDFTCRVRWKKDQVLVWDNLCTMHRAVPDYAGKFRYLTRTTVAGDKPSR
Turning to B1, in the data set on transgenic soy plants (setting [5]), the “Average soy % crop injury for 4 reps, fluroxypyr” value is 96.3% and 93.8% and 97.5%; the “Average soy % crop injury for 4 reps, triclopyr” value was 81.3% and 90.0%. Further, in the data set on transgenic soy plants (setting [6]), the “Average soy % crop injury for 4 reps, 2,4-D Amine” value was 4.5% and 6.5% and 5.3%; the “Average soy % crop injury for 4 reps, MCPA” value is 90.0% and 72.5%. Besides, in the data set on transgenic soy plants (setting [7]), the “Average soy % crop injury for 4 reps, 2,4-D Amine” value is on record as “less than 7%”; the “Average soy % crop injury for 4 reps, MCPA” value was 72% and 90%. Further, the “soy crop injury, triclopyr or fluroxypyr, across all three events” value with transgenic soy plants (2× rate 840 g ae/ha) is 81-97%. Moreover, in data set [1], the “activity with MCPB as the substrate” value is listed as “no detectable activity” and the “enzymatic activity with MCPA greater compared to the wild-type RdpA enzyme” value is recorded as “roughly 6 fold”. Besides, in data set [1] (not robust enough to quantify), the “activity with fluroxypyr as the substrate” value is given as “detectable activity” and the “activity with triclopyr as the substrate” value is “detectable activity”. Besides, in data set [1] (setting [8]), the “MCPA Km” value is recorded as 21%, the “MCPA Vmax” value worked out at 600% and the “Mecoprop Km” value is on record as 142%. For the same molecule, in data set [2] (2,4-D rate 2X (1.5 lb ae/acre), single copy R0 soy, seven days after application), the “Events with <20% injury” value stood at 12. The “tolerance to 2,4-D treatment” value in data set [2] (2× application rate, soy) is given as “excellent tolerance”. Moreover, in the data set on F1 hybrid maize plants [3] (4X rate 1680 g ae/ha), the “Average maize % crop injury for 4 reps, fluroxypyr” value is 20.0% and 21.3%; the “Average maize % crop injury for 4 reps, triclopyr” value is 26.3% and 37.5% and 35.0%. The “Average maize % crop injury for 4 reps, MCPA” value with F1 hybrid maize plants [3] (4X rate 3360 g ae/ha, listed as MON-HTl) came to 20%.

B2: MON-HT55: engineered oxygenase protein, amino acid sequence SEQ ID NO:11 (protein)
chain: MHAALSPLSQRFERIAVQPLTGVLGAEITGVDLREPLDDSTWNEILDAFHTYQVIYFPGQAITNEQHIAFSRRFGPVDPVPLLKSIEGYPEVQMIRREANESGRVIGENWHTDSTFLDAPPAAVVMYAKEIPPYGGDTLFTSMYTAWETLSPTMQATIEGLNVVHSATRVFGSLYQAQNRRFSNTSVKVMDVDAGDRETVHPLVVTHPETGRKGLYVNQVYCQRIEGMSEKESEPLLSFLFAHATKPEFTCRVRWQEGDVLVWDNLCTQHYAVPDYAGKFRYLTRTTVGGVRPAR
For B2, the injury rating entry with F1 hybrid maize plants [4] (day/night 20° C./20° C. or 28° C./20° C.) is on record as “around 2”; in the data set on F1 hybrid maize plants [4] (day/night 38° C./30° C.), 3. For the same molecule, in the data set with transgenic maize plants, the injury scores is no more than 5%.
